# Laboratory results published in patent EP4019090A1.
# Residue numbers refer to the chain shown, from its start.
# B1: PRO1517 (scFv, from another filing)
# scFv: DIQMTQSPSSLSASVGDRVTITCQASEDIESYLAWYQQKPGKAPKLLIYRASTLAYGVPSRFSGSGSGTDFTLTISSLQPEDFATYYCLGSSYSTGSNIFGTGTKVTVLGGGGGSGGGGSGGGGSGGGGSEVQLVESGGGLVQPGGSLRLSCAASGFSSSSAHYMCWVRQAPGKGLEWIGCIYAGSRGSTYYASWAKGRFTISRDNSKNTVYLQMNSLRAEDTAVYYCARAAFVNRGVSWIWPYYFSLWGQGTLVTVSS
# B2: PRO1535 (scFv, from another filing)
# scFv: B1 scFv with A43P, V132S, G180A, R204K, Y227F
# How the values were obtained:
# Human IL-4R-Fc (human) [1] = target: Human IL-4R-Fc (human) (UniProt P24394); experiment: SPR
# [2] = target: Biotinylated IL-4R (human) (UniProt P24394); experiment: competitive ELISA; IL-4 coated, biotinylated IL-4R preincubated with scFv, streptavidin-HRP
# [3] = target: Biotinylated IL-4R (human) (UniProt P24394); experiment: competitive ELISA; IL-4 coated, biotinylated IL-4R preincubated with scFv; reference dupilumab
# Human IL-4R-Fc (human) [4] = target: Human IL-4R-Fc (human) (UniProt P24394); experiment: SPR (Biacore T200); human IL-4R-Fc captured via anti-human IgG-Fc, scFv as analyte; 1:1 model
# Chain of Human IL-4R-Fc (human) (P24394 26-232 limits assumed): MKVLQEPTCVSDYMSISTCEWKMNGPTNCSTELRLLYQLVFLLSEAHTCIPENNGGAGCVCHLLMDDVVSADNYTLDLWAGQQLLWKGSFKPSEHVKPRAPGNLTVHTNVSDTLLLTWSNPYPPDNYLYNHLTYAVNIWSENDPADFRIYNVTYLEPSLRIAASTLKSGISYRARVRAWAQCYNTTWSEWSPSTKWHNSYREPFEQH
# Chain of Biotinylated IL-4R (human) (P24394 26-232 limits assumed): as above
Binder,Kd (Human IL-4R-Fc (human) [1]),IC50 [2],"rel. IC50 (IC50, dupilumab/IC50 test sample) [3]",Kd (Human IL-4R-Fc (human) [4]),koff (Human IL-4R-Fc (human) [4]),kon (Human IL-4R-Fc (human) [4])
B1,< 0.5 nM,0.54 ng/mL,3.46,–,–,–
B2,< 0.5 nM,1.92 ng/mL,0.98,0.0199 nM,5.42e-05 s⁻¹,2.72e+06 M⁻¹ s⁻¹
